Experiment [1] concerns the target VI (vacuolar invertase) extracted from mature soybean leaves (Glycine max (endogenous in mature leaves)).
In experiment [2] the target is CWI (cell wall invertase) extracted from mature soybean leaves (Glycine max (endogenous in mature leaves)).

As to recombinant GmC/VIF2 (natural protein), in experiment [1], the inhibition of VI activity (glucose released from sucrose) of a leaf soluble fraction after 30 min at 37 °C with recombinant GmC/VIF2; maximum at about 100 ng worked out at 75%. In addition, the inhibition of CWI activity (glucose released from sucrose) of a leaf cell-wall preparation after 30 min at 37 °C with recombinant GmC/VIF2; maximum at about 100 ng in experiment [2] was 80%. Consider recombinant GmCIF1 (natural protein), for which, in experiment [1], the inhibition of VI activity (glucose released from sucrose) of a leaf soluble fraction after 30 min at 37 °C with recombinant GmCIF1; maximum at about 50 ng, no further effect at 100 ng and 1000 ng amounted to 70%.

For the origin of these results see paper PMC5441900.
